Where two headings read alike, the source gives them in different places.
What was measured:
Experiment in all cases: EMSA
[1] = target: T1, *VLF-1 (HAHIS-VLF-1, very late expression factor 1) (Autographa californica multiple capsid …, UniProt Q06687 1-379)
T1 sequence: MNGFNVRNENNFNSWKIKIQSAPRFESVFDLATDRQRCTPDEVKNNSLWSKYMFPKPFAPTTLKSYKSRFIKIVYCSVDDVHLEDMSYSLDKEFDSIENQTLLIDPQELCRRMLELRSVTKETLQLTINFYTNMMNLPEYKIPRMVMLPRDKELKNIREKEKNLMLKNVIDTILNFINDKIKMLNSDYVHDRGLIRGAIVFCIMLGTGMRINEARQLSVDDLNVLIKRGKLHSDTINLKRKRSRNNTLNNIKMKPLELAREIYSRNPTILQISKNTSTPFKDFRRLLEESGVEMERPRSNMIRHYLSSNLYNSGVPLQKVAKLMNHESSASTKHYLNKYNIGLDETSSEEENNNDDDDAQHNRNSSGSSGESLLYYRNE

[2] = target: T1, *VLF-1 (HAHIS-VLF-1, very late …); remark: listed apart in the source
[3] = target: T1, *VLF-1 (HAHIS-VLF-1, very late …); remark: listed apart in the source
[4] = target: T1, *VLF-1 (HAHIS-VLF-1, very late …); remark: listed apart in the source

B1: substrate I, linear single-stranded DNA (4X12-2) (ssDNA)
DNA: TGGGTGAACCTGCAGGTGGGCAAAGATGTCCTAGCAATGTAATCGTCAAGCTTTATGCCGTT
binding result [1]: no binding

B2: substrate II, linear double-stranded DNA (4X12-2/4X12-5) (dsDNA)
DNA 1: TGGGTGAACCTGCAGGTGGGCAAAGATGTCCTAGCAATGTAATCGTCAAGCTTTATGCCGTT
DNA 2: AACGGCATAAAGCTTGACGATTACATTGCTAGGACATCTTTGCCCACCTGCAGGTTCACCCA
binding result [1]: no binding

B3: substrate V, cruciform (4X12-2/4X12-1/4X12-3/4X12-4a) (structured_DNA)
DNA 1: TGGGTGAACCTGCAGGTGGGCAAAGATGTCCTAGCAATGTAATCGTCAAGCTTTATGCCGTT
DNA 2: GACGCTGCCGAATTCTACCAGTGCCTTGCTAGGACATCTTTGCCCACCTGCAGGTTCACCC
DNA 3: CAACGGCATAAAGCTTGACGATTACATTGCTAGGACATGCTGTCTAGAGGATCCGACTATCGA
DNA 4: ATCGATAGTCGGATCCTCTAGACAGCATGTCCTAGCAAGGCACTGGTAGAATTCGGCAGCGT
binding result [2]: binds

B4: substrate IV, three-way junction (4X12-2/4X12-1/4X12-3) (structured_DNA)
DNA 1: TGGGTGAACCTGCAGGTGGGCAAAGATGTCCTAGCAATGTAATCGTCAAGCTTTATGCCGTT
DNA 2: GACGCTGCCGAATTCTACCAGTGCCTTGCTAGGACATCTTTGCCCACCTGCAGGTTCACCC
DNA 3: CAACGGCATAAAGCTTGACGATTACATTGCTAGGACATGCTGTCTAGAGGATCCGACTATCGA
binding result [3]: binds

B5: substrate VII, hairpin hr DNA (v-hr1/v-hr3) (structured_DNA)
DNA 1: GGGGTTTGTTTTTCAAAACTAAACTCGCTTTACGAGTAGAATTCTACTTGTAACGCACAATCAAGGGATGATGTCAGGGG
DNA 2: CCCCTGACATCATCCCTTGATTGTGAGTTTAGTTTTGAAAAACAAACCCC
binding result [4]: binds
